This note sets out measurements from publication PMC3406025, “Structure and Binding Interface of the Cytosolic Tails of αXβ2 Integrin” (PLoS ONE, 2012).

The chains are these.
B1: cytosolic tail (CT) of integrin β2 (residues K724-S769) (domain or fragment, UniProt P05107 724-769, looked up)
chain: KALIHLSDLREYRRFEKEKLKSQWNNDNPLFKSATTTVMNPKFAES
notes: integrin β2 (CD18) cytosolic tail, residues K724-S769; Used 15N-labelled in one direction of the titration and unlabelled in the other; also called β2 CT; CT of β2; source: E. coli BL21DE3, KSI fusion in inclusion bodies, purified (Ni-NTA in 8 M urea, cyanogen bromide cleavage, HPLC); not shown: ketosteroid isomerase (KSI), N-terminal, cleaved
B2: cytosolic tail (CT) of integrin αX (residues K1129-K1163) (domain or fragment, UniProt P20702 1129-1163, looked up)
chain: KVGFFKRQYKEMMEEANGQIAPENGTQTPSPPSEK
notes: integrin αX (CD11c) cytosolic tail, residues K1129-K1163, 35 residues; Used 15N-labelled in one direction of the titration and unlabelled in the other; A GGGGSDP linker lay between KSI and the tail, and formic acid cleaves at the Asp-Pro site, so a Pro may remain at the N-terminus (surmised); The myristoylated synthetic αX CT (GL Biochem) was used only for the structure in DPC micelles, not for …

Experiment [1] concerns the target B2. Kind of experiment: NMR titration; 15N-1H HSQC; 15N-labelled CT titrated with the unlabelled cognate CT up to two times its concentration (1:2); 10 mM sodium phosphate buffer, pH 6.5, aqueous solution; done in both directions. To be noted: both partners purified.
For experiment [2], the target named is B1. The experiment is described as above. Conditions: both partners purified.

Take B1: the binding result in experiment [1] is “binds”.

Turning to B2, the binding result in experiment [2] is reported as “binds”.
